Measurements reported in the supplement of paper PMC6379048.

Assays:
Test in all cases: EC50 of free RNA motif oligo competing protein binding to immobilised probe
GPATCH3 = molecular target: T1, GPATCH3 (UniProt Q96I76)
T1 sequence: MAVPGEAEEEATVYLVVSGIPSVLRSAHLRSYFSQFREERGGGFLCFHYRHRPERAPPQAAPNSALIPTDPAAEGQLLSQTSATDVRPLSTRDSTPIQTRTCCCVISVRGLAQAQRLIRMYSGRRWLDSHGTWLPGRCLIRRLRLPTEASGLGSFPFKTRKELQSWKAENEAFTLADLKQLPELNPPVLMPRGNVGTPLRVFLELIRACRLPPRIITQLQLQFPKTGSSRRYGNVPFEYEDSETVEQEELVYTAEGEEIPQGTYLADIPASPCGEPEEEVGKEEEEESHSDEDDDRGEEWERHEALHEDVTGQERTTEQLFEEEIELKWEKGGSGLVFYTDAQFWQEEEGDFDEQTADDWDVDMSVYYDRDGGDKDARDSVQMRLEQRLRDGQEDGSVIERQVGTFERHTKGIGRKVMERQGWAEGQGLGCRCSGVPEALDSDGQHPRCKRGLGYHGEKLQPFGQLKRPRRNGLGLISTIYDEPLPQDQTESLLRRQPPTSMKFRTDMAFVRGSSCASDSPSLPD
In short: (§1)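 HEK293-FT lysate (2.5 mg protein/well) was pre-incubated 1 h at 4°C with free RNA oligos (0 nM to 30 μM), then 30 min at 4°C with the same 5′-amino-C6 oligos coupled to NHS-Sepharose beads. Bound proteins were quantified by label-free LC-MS/MS in three biological replicates and two independent experiments, and normalised to the water control. EC50 came from a four-parameter log-logistic fit; Kd is EC50 times a protein-dependent depletion factor.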

RBMS2 = molecular target: T2, RBMS2 (UniProt Q15434)
T2 sequence: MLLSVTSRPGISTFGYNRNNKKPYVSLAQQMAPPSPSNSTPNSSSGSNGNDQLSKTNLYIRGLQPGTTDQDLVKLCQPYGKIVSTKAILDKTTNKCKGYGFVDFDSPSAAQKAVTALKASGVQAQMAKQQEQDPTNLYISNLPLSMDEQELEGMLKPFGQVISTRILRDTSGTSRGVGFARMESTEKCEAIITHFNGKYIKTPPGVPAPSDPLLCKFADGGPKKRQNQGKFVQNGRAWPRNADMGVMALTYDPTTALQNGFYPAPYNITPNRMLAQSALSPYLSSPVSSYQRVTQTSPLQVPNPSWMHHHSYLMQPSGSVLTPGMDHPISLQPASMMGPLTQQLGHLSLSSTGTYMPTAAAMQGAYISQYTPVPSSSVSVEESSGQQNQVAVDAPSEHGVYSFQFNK
In short: as §1

TSN = TSN (UniProt Q15631)
In short: as §1

WDR33 = molecular target: T3, WDR33 (UniProt Q9C0J8)
T3 sequence: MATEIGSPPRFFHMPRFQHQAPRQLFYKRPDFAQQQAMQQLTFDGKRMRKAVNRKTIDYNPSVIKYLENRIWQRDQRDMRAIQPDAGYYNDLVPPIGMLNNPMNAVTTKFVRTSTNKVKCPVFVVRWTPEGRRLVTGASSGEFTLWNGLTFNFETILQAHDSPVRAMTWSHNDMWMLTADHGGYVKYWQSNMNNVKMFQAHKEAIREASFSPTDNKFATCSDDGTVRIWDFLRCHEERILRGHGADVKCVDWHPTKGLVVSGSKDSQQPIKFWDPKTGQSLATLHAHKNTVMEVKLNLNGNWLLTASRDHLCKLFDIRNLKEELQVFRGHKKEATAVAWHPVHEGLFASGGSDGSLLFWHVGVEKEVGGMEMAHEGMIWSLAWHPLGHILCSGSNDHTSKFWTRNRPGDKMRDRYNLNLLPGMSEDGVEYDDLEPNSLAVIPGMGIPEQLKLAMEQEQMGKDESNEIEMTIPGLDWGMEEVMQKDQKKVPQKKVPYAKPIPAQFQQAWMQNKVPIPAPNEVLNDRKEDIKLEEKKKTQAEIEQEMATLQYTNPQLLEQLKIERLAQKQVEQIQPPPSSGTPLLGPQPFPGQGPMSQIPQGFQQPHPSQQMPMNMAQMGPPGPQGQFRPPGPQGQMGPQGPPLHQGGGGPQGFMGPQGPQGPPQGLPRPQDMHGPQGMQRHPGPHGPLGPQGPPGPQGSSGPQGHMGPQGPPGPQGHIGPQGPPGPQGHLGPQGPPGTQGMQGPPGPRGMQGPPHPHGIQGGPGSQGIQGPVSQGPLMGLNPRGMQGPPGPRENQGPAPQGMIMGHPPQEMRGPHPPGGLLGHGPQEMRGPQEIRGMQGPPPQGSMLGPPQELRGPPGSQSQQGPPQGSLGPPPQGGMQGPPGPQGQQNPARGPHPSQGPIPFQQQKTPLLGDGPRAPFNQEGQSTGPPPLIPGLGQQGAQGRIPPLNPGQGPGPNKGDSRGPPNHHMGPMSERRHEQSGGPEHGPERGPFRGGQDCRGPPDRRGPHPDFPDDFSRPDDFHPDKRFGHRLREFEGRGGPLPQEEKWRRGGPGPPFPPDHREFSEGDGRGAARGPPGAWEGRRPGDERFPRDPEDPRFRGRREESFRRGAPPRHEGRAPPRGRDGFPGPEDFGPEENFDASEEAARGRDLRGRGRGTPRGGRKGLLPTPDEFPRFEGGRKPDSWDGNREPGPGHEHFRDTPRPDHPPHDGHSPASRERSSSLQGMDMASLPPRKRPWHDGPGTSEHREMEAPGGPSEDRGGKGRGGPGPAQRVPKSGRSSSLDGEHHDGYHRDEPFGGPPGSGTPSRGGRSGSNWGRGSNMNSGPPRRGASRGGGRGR
In short: as §1

Sequence of TSN (Q15631 whole entry): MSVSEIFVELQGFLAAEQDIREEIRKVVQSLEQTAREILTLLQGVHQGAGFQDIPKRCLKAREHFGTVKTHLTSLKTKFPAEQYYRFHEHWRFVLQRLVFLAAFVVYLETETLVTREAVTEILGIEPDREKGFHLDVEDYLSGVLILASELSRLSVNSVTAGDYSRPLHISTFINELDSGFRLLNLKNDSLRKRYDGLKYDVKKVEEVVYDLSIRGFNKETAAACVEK

Sequence	EC50 (GPATCH3)	EC50 (RBMS2)	EC50 (TSN)	EC50 (WDR33)
UAUUUAU	326 nM	545 nM	75.2 nM	960 nM
AAUAAA	884 nM	1290 nM	58.4 nM	64.6 nM
